Experimental data from patent publication US6713276B2, “Modulation of Aβ levels by β-secretase BACE2” (Scios, Inc., priority 2000, dated 2004).

B1: BACE2 D110A: single D110A BACE2 mutant of a critical aspartate residue, made by site-directed mutagenesis (protein)
chain: ALEPALASPAGAANFLAMVDNLQGDSGRGYYLEMLIGTPPQKLQILVATGSSNFAVAGTPHSYIDTYFDTERSSTYRSKGFDVTVKYTQGSWTGFVGEDLVTIPKGFNTSFLVNIATIFESENFFLPGIKWNGILGLAYATLAKPSSSLETFFDSLVTQANIPNVFSMQMCGAGLPVAGSGTNGGSLVLGGIEPSLYKGDIWYTPIKEEWYYQIEILKLEIGGQSLNLDCREYNADKAIVDSGTTLLRLPQKVFDAVVEAVARASLIPEFSDGFWTGSQLACWTNSETPWSYFPKISIYLRDENSSRSFRITILPQLYIQPMMGAGLNYECYRFGISPSTNALVIGATVMEGFYVIFDRAQKRVGFAASPCAEIAGAAVSEISGPFSTEDVASNCVPAQSLSEPILWIVSYALMSVCGAILLVLIVLLLLPFRCQRRPRDPEVVNDESSLVRHRWK
B2: BACE2: human aspartyl protease, close homolog of BACE (SEQ ID NO: 2), expressed from pcDNA3.1(−)/BACE2 in transfected cells (protein)
chain: MGALARALLLPLLAQWLLRAAPELAPAPFTLPLRVAAATNRVVAPTPGPGTPAERHADGLALALEPALASPAGAANFLAMVDNLQGDSGRGYYLEMLIGTPPQKLQILVDTGSSNFAVAGTPHSYIDTYFDTERSSTYRSKGFDVTVKYTQGSWTGFVGEDLVTIPKGFNTSFLVNIATIFESENFFLPGIKWNGILGLAYATLAKPSSSLETFFDSLVTQANIPNVFSMQMCGAGLPVAGSGTNGGSLVLGGIEPSLYKGDIWYTPIKEEWYYQIEILKLEIGGQSLNLDCREYNADKAIVDSGTTLLRLPQKVFDAVVEAVARASLIPEFSDGFWTGSQLACWTNSETPWSYFPKISIYLRDENSSRSFRITILPQLYIQPMMGAGLNYECYRFGISPSTNALVIGATVMEGFYVIFDRAQKRVGFAASPCAEIAGAAVSEISGPFSTEDVASNCVPAQSLSEPILWIVSYALMSVCGAILLVLIVLLLLPFRCQRRPRDPEVVNDESSLVRHRWK

Columns and labels:
[1] = tested on: CT100 (C-terminal 100 amino acids of APP) processing in HEK293T cells; assay: co-transfection with CT100 in HEK293T cells, ELISA, Western blot, pulse-chase; type: cell-based, human; settings: for CTFs derived from CT100 (α-like CTF): HEK293 cells, CT100, Western blot and pulse-chase 90 minutes
Procedure: (§1) Expression vectors containing BACE and BACE2 cDNAs were transfected into HEK293T cells in the presence of APP751sw or CT100 (Shoji et al., Science 258: 126-129 [1992]; Lichtenthaler et al., Proc. Natl. Acad. Sci. USA 96: 3053-3058 [1999]). Transfections were performed in 24 well plates using Lipofectamine Plus (Gibco/BRL, Bethesda, Md.) and DNA concentrations were kept constant by including non-specific DNA. Expression plasmids were tested for BACE and BACE2 expression by Western blotting. Cell culture supernatants were collected 48 hours and 72 hours post-transfection, and assayed for α-NTF, β-NTF and Aβ formation. β-NTF measurement was performed as described below. α-NTF was captured like β-NTF but was detected with biotinylated 2H3 (Johnson-Wood et al., Proc. Nati. Acad. Sci. USA 94: 1550-1555 [1997]). Aβ levels were determined by an ELISA using monoclonal antibodies 266 for capture and biotinylated 3D6 for detection (see Johnson-Wood et al., [1997] ibid for antibody epitope description). Aβ42, in contrast, was captured using 21F 12 and detected with biotinylated 3D6. Cell extracts prepared 72 hour post-transfection were separated by SDS-PAGE (Novex) and probed with CT695 (Zymed) for APP and CTFs as well as with an Aβ specific monoclonal antibody WO2 (kindly provided by K. Beyreuther; Ida et al., J. Biol. Chem. 271: 22908-22914 [1996]). […]
This effect prompted investigation into whether β-secretase cleavage was required for Aβ suppression. The effects of BACE2 on the metabolism of the C-terminal 100 amino acids of APP (CT100), a construct that mimics prior β-secretase cleavage (Shoji et al., Science 258: 126-129 [1992]), was analyzed. […] Cells were readiolabeled with ^35S-methionine/cysteine for 15 minutes after which the medium containing radiolabel was removed and replaced with standard medium. […] Over this 90-minute period, samples were taken and assessed for CTFs by immunoprecipitation. […]

[2] = tested on: APP751sw processing in SK-N-MC cells; assay: co-transfection with APP751sw in SK-N-MC neuroblastoma cells, ELISA of conditioned medium; type: cell-based, human; settings: co-transfected with APP751sw
Procedure: as §1, with “3D6.” for “3D6. Cell extracts prepared 72 hour post-transfection were separated by SDS-PAGE (Novex) and probed with CT695 (Zymed) for APP and CTFs as well as with an Aβ specific monoclonal antibody WO2 (kindly provided by K. Beyreuther; Ida et al., J. Biol. Chem. 271: 22908-22914 [1996]).”
We further assessed the modulatory effect of BACE2 on Aβ formation using a human neuroblastoma cell line, SK-N-MC.

Row | Molecule | CTFs derived from CT100 (α-like CTF) [1] | total Aβ and Aβ42 levels in conditioned medium ([1]; HEK293T, co-transfected with CT100) | Aβ in conditioned medium [2] | β-NTF in conditioned medium [2]
1 | B1 | unable to convert APP CT100 to an α-CTF-like fragment |  |  | 
2 | B2 | accumulation of the α-like CTF | dramatic suppression of total Aβ as well as Aβ42 levels | significant reduction of Aβ | showed β-secretase activity in vivo
